Experimental data from US20240109965A1 (Ablynx, published 2024).
Numbering of substitutions follows the chain as printed.

T1: cynomolgus T cell receptor (TCRαβ) on primary cynomolgus T cells (cynomolgus)
T1 V domain 1: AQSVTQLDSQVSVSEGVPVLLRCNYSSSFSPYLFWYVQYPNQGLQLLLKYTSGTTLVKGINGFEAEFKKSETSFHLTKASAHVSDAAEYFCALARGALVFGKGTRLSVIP
T1 V domain 2: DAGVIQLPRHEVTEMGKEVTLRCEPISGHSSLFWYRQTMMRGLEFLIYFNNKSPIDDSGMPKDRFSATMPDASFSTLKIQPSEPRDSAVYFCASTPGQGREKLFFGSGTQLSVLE

T2: cynomolgus TCRαβ-zipper protein (cynomolgus)
T2 construct: also called cyTCR(AEA41865)-zipper; CynoTCRαβ-zipper
T2 TCR alpha: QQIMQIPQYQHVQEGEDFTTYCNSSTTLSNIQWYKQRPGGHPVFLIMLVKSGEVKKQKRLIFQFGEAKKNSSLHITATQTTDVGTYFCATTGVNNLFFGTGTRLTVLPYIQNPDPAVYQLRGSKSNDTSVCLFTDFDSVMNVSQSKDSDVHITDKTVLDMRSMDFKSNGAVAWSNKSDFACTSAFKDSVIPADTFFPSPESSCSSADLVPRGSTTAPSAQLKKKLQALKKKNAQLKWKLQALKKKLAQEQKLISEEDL
T2 TCR beta: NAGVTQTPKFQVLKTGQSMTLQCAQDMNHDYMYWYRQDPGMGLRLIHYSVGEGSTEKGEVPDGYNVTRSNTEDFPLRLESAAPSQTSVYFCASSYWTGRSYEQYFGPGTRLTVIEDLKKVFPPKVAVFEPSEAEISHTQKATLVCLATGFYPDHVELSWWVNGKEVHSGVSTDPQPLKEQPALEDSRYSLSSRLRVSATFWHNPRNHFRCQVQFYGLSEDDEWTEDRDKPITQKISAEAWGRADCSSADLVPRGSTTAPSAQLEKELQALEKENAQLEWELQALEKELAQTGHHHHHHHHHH

B1: T017001018 (bispecific antibody)
chain: EVQLVESGGGVVQPGGSLRLSCVASGYVHKINFYGWYRQAPGKEREKVAHISIGDQTDYAESAKGRFTISRDESKNTVYLQMNSLRPEDTAAYYCRALSRIYPYDYWGQGTLVTVSSGGGGSGGGSEVQLVESGGGVVQPGGSLRLSCAASGTTLDYYVIGWFRQAPGKEREGVSCISSSDGYTYYADSVKGRFTISRDNAKNTVYLQMNSLRPEDTALYYCATDPYYSSCHPFFADYEYDYWGQGTLVTVSSGGGGSGGGSEVQLVESGGGVVQPGGSLRLSCAASGFTFRSFGMSWVRQAPGKGPEWVSSISGSGSDTLYADSVKGRFTISRDNSKNTLYLQMNSLRPEDTALYYCTIGGSLSRSSQGTLVTVSS
B2: T017001019 (bispecific antibody)
chain: B1 chain with Y102T
B3: T017001021 (bispecific antibody)
chain: B1 chain with Y102Q

target: T3, human T cell receptor (TCRαβ) on primary human T cells (human); assay: cell-based or functional assay
T3 sequence (P0DTU3 134-275, chain 1 of 2): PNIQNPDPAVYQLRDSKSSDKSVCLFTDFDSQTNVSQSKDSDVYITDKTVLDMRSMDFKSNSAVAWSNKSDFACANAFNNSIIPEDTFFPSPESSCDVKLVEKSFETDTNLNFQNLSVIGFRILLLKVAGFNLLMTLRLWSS
T3 sequence (P01850 other isoform, or with tags, fused parts or gaps, chain 2 of 2, further chain): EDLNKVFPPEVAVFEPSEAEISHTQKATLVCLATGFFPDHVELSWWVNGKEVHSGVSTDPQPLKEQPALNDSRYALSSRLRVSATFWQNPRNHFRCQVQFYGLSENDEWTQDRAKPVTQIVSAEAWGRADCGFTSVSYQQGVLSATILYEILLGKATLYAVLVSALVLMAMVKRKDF

**Q.** With B1 as the binder, how does the “EC50 (M), human T cell mediated MOLM-13 cell killing, Donor #1” value read?
**A.** 3.3e-11 M

**Q.** What about the “EC50 (M), human T cell mediated MOLM-13 cell killing, Donor #2” value of the same binder?
**A.** 1e-10 M

**Q.** What does the source list for B2?
**A.** EC50 (M), human T cell mediated MOLM-13 cell killing, Donor #1: 1.5e-10 M; EC50 (M), human T cell mediated MOLM-13 cell killing, Donor #2: 5.2e-10 M

**Q.** With B3 as the binder, how does the “EC50 (M), human T cell mediated MOLM-13 cell killing, Donor #1” value read?
**A.** 2.3e-10 M

**Q.** What about the “EC50 (M), human T cell mediated MOLM-13 cell killing, Donor #2” value of the same binder?
**A.** 2.1e-09 M

target: T3, human T cell receptor (TCRαβ) on …; assay: cell-based or functional assay; remark: another data set of the same source

**Q.** With B1 as the binder, how does the “Potency (M) - human T cells, KG-1a cell killing” value (“Potency (M) - human T cells” below) read?
**A.** 2.7e-10 M

**Q.** For B2, which “Potency (M) - human T cells” value is on record?
**A.** 2.3e-09 M

**Q.** For B3, which “Potency (M) - human T cells” value is on record?
**A.** 5.7e-09 M

Target: T1, cynomolgus T cell receptor (TCRαβ) on …
Assay: cell-based or functional assay

**Q.** How did the “Potency (M) - cyno T cells, KG-1a cell killing” value (shortened to “Potency (M) - cyno T cells”) turn out when B1 was run?
**A.** 4e-11 M

**Q.** B2 was tested. Which “Potency (M) - cyno T cells” value did it give?
**A.** 7.4e-10 M

**Q.** How did the “Potency (M) - cyno T cells” value turn out when B3 was run?
**A.** 9.4e-10 M

Target: T2, cynomolgus TCRαβ-zipper protein
Assay: SPR Biacore 8K+, multi-cycle kinetics, TCR-zipper immobilized
Procedure: Binding of purified TCE-CD123-ALB and CD123-TCE-ALB ISVD constructs to human TCRαβ-zipper protein (huTCR(2XN9)-zipper, in-house produced) and cynomolgus TCRαβ-zipper protein (cyTCR(AEA41865)-zipper, in-house produced) was probed by Surface Plasmon Resonance (SPR) (Cytiva, Biacore 8K+). Both targets were immobilized on a CM5 sensor chip using standard amine coupling chemistry. […] Each concentration of the ISVDs was injected for 180s and dissociation was assessed during 600s.
Data was double referenced by subtracting a reference flow cell (FC) and a blank buffer injection. Affinity constants (ka, kd and KD) were calculated applying the Langmuir 1:1 interaction model using the Biacore Insight Evaluation Software (Cytiva, Version 3.0.12.15655).

**Q.** Which Kd does the source give for B1 here?
**A.** 32 nM

**Q.** B2 was tested. Which Kd did it give?
**A.** 1600 nM

**Q.** For B3, which Kd is on record?
**A.** 3400 nM
